From patent publication US20100093623A1, “COMPOSITIONS AND METHODS FOR […]-LIKE RECEPTOR ACTIVITY AND USES THEREOF” (Burnham Institute for Medical Research, priority 2008, published 2010)
Values joined by “and” are separate entries in the source; they are usually repeats but may differ in a detail not shown here. Equal values may be shown once. “Also recorded” adds a separate entry of the source. No end group written: not given here.

Legend:
Caspase-1 = target: T1, Caspase-1 (Homo sapiens, UniProt P29466); assay: activity of purified active p10/p20 Caspase-1 (direct effect); type: biochemical; conditions: active p10/p20 Caspase-1 5 nM; test protein/peptide at excess; Ac-WEHD-CHO 10 nM
T1 construct: fully active, proteolytically processed Caspase-1 comprised of p20 and p10 catalytic subunits purified from bacteria; made in house; host or cells: bacteria
T1 sequence (P29466 120-297 limits assumed): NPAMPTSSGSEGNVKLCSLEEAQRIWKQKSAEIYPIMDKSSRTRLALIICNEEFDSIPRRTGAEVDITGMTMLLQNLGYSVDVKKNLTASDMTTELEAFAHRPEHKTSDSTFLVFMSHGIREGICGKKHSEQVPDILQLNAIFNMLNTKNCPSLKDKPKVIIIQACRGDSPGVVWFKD
T1 sequence (P29466 317-404 limits assumed): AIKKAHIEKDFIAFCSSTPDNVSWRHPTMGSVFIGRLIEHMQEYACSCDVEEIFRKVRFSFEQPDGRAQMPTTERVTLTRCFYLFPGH
Procedure: (§1) FIGS. 16A-16E show Bcl-2 Loop peptide inhibits NLRP1. […] Asterisk indicates p<0.05. (B) Purified active p10/p20 Caspase-1 (5 nM) was incubated with or without Bcl-2 Loop peptide 35-83 or Ac-WEHD-CHO (10 nM). […] Asterisks indicate p<0.05.
Caspase activity measurements. […] Proteins were mixed in Caspase-1 buffer (100 mM HEPES, [pH 7.5], 10% Sucrose, 0.1% CHAPS, 1 mM Dithiothreitol) in a final volume of 10 μl in 96-well plates. Various activators were added (ATP, Mg^2+, MDP-LD), adjusting final volume with water. Samples were then incubated for 30 min at 37° C. and Caspase-1 activity was measured using 20 μM fluorometric substrate Ac-WEHD-AMC (Calbiochem). Release of AMC product was monitored continuously by spectrofluorometry in kinetic mode over 1 h at 25-27° C. Rates of catalysis were calculated using the initial slope and Caspase activity was expressed as the change in fluorescence over time derived from the linear phase of reactions. Data were analyzed using the PRISM Statistics software, employing an unpaired t test.
To exclude a direct effect of Bcl-2 and Bcl-XL on Caspase-1, as opposed to NLRP1, the effects of these anti-apoptotic proteins were tested on fully active, proteolytically processed Caspase-1 comprised of p20 and p10 catalytic subunits purified from bacteria (FIG. 11).

NLRP1ΔLRR = assay: Caspase-1 activation by NLRP1ΔLRR mutant; type: biochemical; conditions: peptide 50 nM; Ac-WEHD-CHO 10 nM; NLRP1ΔLRR 8.5 nM
Procedure: as §1
To characterize the sequence of the Bcl-2 loop responsible for inhibiting NLRP1, a series of overlapping 20′mer peptides corresponding to the 35-83 region were synthesized and tested their effects on NLRP1-mediated Caspase-1 activation. […] The effects of the full-loop peptide (35-83) and the active segment (71-90) were specific, as determined by experiments using a NLRP1 mutant lacking the LRRs. […] Finally, the concentration-dependence of NLRP1 inhibition by the 35-83 and 71-90 loop peptides were compared.

NLRP1 [1] = target: T2, NLRP1 (Homo sapiens, UniProt Q9C000); assay: NLRP1-mediated proteolytic processing of pro-Caspase-1 (anti-p10 immunoblot); type: biochemical; conditions: molar ratio NLRP1/protein 1/5
T2 sequence (Q9C000 1-1473): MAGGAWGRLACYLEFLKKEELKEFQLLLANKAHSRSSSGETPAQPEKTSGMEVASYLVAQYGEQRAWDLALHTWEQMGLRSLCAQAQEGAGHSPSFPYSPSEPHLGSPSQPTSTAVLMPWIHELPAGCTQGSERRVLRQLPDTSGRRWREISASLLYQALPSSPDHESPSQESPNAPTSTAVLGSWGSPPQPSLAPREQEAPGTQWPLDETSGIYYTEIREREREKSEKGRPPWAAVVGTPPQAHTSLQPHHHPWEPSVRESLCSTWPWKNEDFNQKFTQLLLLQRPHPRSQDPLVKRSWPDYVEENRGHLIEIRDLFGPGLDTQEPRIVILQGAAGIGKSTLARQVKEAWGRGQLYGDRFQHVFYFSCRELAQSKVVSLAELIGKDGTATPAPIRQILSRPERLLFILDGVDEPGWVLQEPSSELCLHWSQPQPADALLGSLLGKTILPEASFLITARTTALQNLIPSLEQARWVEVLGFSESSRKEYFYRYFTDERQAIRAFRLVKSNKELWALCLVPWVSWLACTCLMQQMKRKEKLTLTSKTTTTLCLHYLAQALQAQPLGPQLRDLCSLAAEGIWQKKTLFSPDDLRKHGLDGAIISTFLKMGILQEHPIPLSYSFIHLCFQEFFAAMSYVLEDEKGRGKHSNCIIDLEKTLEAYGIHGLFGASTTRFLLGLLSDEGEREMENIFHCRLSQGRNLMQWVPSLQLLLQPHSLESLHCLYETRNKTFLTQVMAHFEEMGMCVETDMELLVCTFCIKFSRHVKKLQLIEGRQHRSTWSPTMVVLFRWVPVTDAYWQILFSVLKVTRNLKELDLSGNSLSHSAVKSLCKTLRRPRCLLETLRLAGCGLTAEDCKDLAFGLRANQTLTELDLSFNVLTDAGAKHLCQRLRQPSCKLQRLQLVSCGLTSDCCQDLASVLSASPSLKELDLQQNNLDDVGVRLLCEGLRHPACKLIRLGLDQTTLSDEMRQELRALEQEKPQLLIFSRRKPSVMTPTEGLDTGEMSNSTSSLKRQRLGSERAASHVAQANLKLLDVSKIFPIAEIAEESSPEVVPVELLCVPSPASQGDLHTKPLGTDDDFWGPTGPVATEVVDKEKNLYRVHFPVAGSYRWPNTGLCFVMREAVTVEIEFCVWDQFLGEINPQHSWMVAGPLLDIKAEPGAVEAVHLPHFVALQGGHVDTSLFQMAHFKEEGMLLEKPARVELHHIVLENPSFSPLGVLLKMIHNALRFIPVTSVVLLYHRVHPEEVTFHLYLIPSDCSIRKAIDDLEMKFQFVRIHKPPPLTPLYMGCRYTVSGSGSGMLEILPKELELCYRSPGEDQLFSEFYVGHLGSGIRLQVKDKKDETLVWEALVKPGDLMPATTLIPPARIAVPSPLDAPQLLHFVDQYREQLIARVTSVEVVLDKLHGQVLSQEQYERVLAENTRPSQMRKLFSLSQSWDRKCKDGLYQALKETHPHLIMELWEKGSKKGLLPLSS

NLRP1 [2] = target: T2, NLRP1; assay: in vitro reconstituted NLRP1 inflammasome: Caspase-1 activity by hydrolysis of Ac-WEHD-AMC; type: biochemical; conditions: for Km: GST-Bcl-2 or GST-Bcl-XL 2 nM, control without inhibitor 2.62±0.35 μM, read-out: Km of Caspase-1 for its substrate Ac-WEHD-AMC in presence of inhibitor; for reduction of affinity (Km) of Caspase-1 for Ac-WEHD-AMC compared to control: in presence of Bcl-2 or Bcl-XL; for Ki: recombinant GST-fusion protein, calculated from Km with/without 2 nM inhibitor, competitive inhibition equation, read-out: inhibitory constant (Ki) for suppression of NLRP1 (NLRP1-induced Caspase-1 activation); for concentration-dependence of inhibition of NLRP1-induced Caspase-1 activity: various concentrations of protein or peptide, NLRP1 8.5 nM; for mechanism of NLRP1 inhibition (Lineweaver-Burke analysis): x-axis intercept changed, y-axis intercept unchanged; for IC50: synthetic Bcl-2 peptides, various amounts, sigmoidal fit, read-out: IC50 (concentration to inhibit NLRP1-induced Caspase-1 activity by 50%)
NLRP1 [3] = target: T2, NLRP1; assay: FITC-ATP binding to NLRP1 by fluorescence polarization assay (FPA); conditions: protein 1 μM at excess; NLRP1 0.125 μM; FITC-ATP 10 nM; MDP-LD 1 μM
NLRP1 [4] = target: T2, NLRP1; assay: NLRP1 oligomerization induced by MDP and ATP, 2D native/SDS gel electrophoresis; type: biochemical; conditions: protein at excess (1/10 molar ratio)
Procedure: Electrophoresis. Samples were incubated with protein solubilizing solution (40 mM 6-aminocaproic acid, 20 mM Bis-tris) for 30 min at 4° C., mixed with loading buffer (1M 6-aminocaproic acid, 5% Serva blue G), and applied to acrylamide-bis gradient (4-20%) gels (Schagger et al., (1994) Anal Biochem 217, 220-30). Bands of gels corresponding to the entire lane were excised from top to the bottom, incubated 45 min at 25-27° C. in denaturating buffer (1% β-mercaptoethanol, 10% SDS), then washed twice in equilibrating buffer (50 mM Tris. 1% SDS). Bands from gels were set horizontally on a SDS-acrylamide gel, and proteins were separated by electrophoresis (second dimension), then stained with Sypro Ruby. Molecular weight markers included Thyroglobuline, Apoferritin, β-Amylase and BSA (Sigma).
Oligomerization of NLRP1 induced by MDP and ATP can be monitored using 2D gel-electrophoresis analysis, in which the first dimension is non-denaturing and thus preserves macromolecular complexes during electrophoresis and the second dimension contains SDS for subsequent identification of proteins based on their known molecular mass (Faustin, 2007). For these experiments, NLRP1 monomers were incubated with various proteins (GST, GST-Bcl-XL, His6-Bcl-XLΔLoop) at excess, then MDP and ATP were added to induce oligomerization (FIG. 15). […]

## acetyl-Tryptophanyl-Glutamyl-Histidinyl-Aspartyl-aldehyde (Ac-WEHD-aldehyde; SMILES CC(=O)N[C@@H](Cc1c[nH]c2ccccc12)C(=O)N[C@@H](CCC(=O)O)C(=O)N[C@@H](Cc1c[nH]cn1)C(=O)N[C@H](C=O)CC(=O)O) [Ac-WEHD-CHO, reference compound]
Caspase-1
  direct effect on activity of fully active processed Caspase-1: completely inhibited; also recorded: potently suppressed the activity of this protease
NLRP1ΔLRR
  Caspase-1 activation by NLRP1ΔLRR: completely neutralized Caspase-1 activity

## Bcl-XL: anti-apoptotic protein; recombinant GST-fusion lacking C-terminal transmembrane domain
Caspase-1
  direct effect on activity of fully active processed Caspase-1: neither Bcl-2 nor Bcl-XL suppressed Caspase-1 activity
NLRP1 [1]
  MDP/ATP-induced proteolytic processing of pro-Caspase-1 to cleaved p10 subunit: inhibited
NLRP1 [2]
  Km: 6.05 ± 0.24 µM
  reduction of affinity (Km) of Caspase-1 for Ac-WEHD-AMC compared to control: 2 fold
  Ki: ~0.01 µM and 0.01 µM
  concentration-dependence of inhibition of NLRP1-induced Caspase-1 activity: essentially complete inhibition
  mechanism of NLRP1 inhibition (Lineweaver-Burke analysis): competitive inhibitors of NLRP1
NLRP1 [3]
  reduction of FITC-ATP binding to NLRP1: ~60%
NLRP1 [4]
  oligomerization of NLRP1 induced by MDP/ATP: suppressed oligomerization of NLRP1

## Bcl-2: anti-apoptotic protein; recombinant GST-fusion lacking C-terminal transmembrane domain (SEQ ID NO:3/4)
Caspase-1
  direct effect on activity of fully active processed Caspase-1: neither Bcl-2 nor Bcl-XL suppressed Caspase-1 activity
NLRP1 [1]
  MDP/ATP-induced proteolytic processing of pro-Caspase-1 to cleaved p10 subunit: inhibited
NLRP1 [2]
  Km: 5.04 ± 0.5 µM
  reduction of affinity (Km) of Caspase-1 for Ac-WEHD-AMC compared to control: 2 fold
  Ki: ~0.01 µM and 0.00823 µM and 0.01 µM
  concentration-dependence of inhibition of NLRP1-induced Caspase-1 activity: essentially complete inhibition
  mechanism of NLRP1 inhibition (Lineweaver-Burke analysis): competitive inhibitors of NLRP1
NLRP1 [3]
  reduction of FITC-ATP binding to NLRP1: ~60%

## YDNREIVMKYIHYKLSQRGYEW (Synthetic Bcl-2 Loop peptides) [Bcl-2 BH4 domain 9-30, control peptide, reference compound]
NLRP1 [2]
  concentration-dependence of inhibition of NLRP1-induced Caspase-1 activity: negligible activity

## GST: control protein [reference compound]
NLRP1 [3]
  reduction of FITC-ATP binding to NLRP1: negligible effects
NLRP1 [4]
  oligomerization of NLRP1 induced by MDP/ATP: not affected

## PLQTPAAPGAAAGPALSPVP [Bcl-2 71-90]
NLRP1ΔLRR
  Caspase-1 activation by NLRP1ΔLRR: neither the 35-83 nor the 71-90 loop peptides suppressed Caspase-1 activation by NLRP1ΔLRR
NLRP1 [2]
  IC50: 0.00992 µM and ~0.01 µM
  concentration-dependence of inhibition of NLRP1-induced Caspase-1 activity: reducing Caspaes-1 activity to background levels

## VGAAPPGAAPAPGIFSSQPGHTPHPAASRDPVARTSPLQTPAAPGAAAG [Bcl-2 Loop 35-83]
Caspase-1
  direct effect on activity of fully active processed Caspase-1: did not directly inhibit Caspase-1
NLRP1ΔLRR
  Caspase-1 activation by NLRP1ΔLRR: neither the 35-83 nor the 71-90 loop peptides suppressed Caspase-1 activation by NLRP1ΔLRR
NLRP1 [2]
  IC50: 0.0114 µM and ~0.012 µM
  concentration-dependence of inhibition of NLRP1-induced Caspase-1 activity: reducing Caspaes-1 activity to background levels
